Biological target: wasl_bovin WASL (UniProt Q95107)
Sequence (Q95107 whole entry): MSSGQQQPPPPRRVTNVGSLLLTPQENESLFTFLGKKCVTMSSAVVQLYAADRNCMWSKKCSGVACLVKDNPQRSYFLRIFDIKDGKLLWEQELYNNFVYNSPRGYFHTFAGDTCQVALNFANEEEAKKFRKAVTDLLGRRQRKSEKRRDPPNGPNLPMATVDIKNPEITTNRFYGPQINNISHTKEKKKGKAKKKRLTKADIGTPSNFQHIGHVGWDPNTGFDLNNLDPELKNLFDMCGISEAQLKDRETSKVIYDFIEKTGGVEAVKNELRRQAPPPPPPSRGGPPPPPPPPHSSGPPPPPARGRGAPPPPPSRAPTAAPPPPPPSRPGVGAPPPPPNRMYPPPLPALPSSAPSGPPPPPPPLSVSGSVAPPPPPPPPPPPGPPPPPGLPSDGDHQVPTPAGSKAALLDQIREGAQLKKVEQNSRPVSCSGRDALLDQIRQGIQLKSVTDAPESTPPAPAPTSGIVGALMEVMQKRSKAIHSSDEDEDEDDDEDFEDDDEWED

Sequence of Src substrate cortactin (Mus musculus), Q60598 Y466D;Y482D (Q60598 whole entry Y466D/Y482D): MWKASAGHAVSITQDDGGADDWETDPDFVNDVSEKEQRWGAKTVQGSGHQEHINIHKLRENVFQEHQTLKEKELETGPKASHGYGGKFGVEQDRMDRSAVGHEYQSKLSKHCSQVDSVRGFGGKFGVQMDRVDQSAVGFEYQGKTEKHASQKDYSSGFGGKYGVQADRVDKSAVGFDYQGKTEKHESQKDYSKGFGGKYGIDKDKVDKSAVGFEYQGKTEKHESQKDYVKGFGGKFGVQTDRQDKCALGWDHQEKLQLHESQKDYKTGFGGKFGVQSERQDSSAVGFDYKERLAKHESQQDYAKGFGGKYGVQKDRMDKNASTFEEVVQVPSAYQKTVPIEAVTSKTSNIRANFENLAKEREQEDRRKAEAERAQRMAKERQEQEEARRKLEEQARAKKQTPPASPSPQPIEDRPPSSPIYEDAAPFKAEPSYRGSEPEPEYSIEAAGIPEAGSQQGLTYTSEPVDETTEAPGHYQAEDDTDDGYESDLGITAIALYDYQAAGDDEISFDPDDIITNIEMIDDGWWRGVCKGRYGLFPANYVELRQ
Sequence of Src substrate cortactin (Mus musculus), Q60598 S405D;S418D (Q60598 whole entry S405D/S418D): as the sequence (Q60598 whole entry Y466D/Y482D) above, with S405D, S418D, D466Y, D482Y counted along it
Sequence of Src substrate cortactin (Mus musculus), Q60598 W525K (Q60598 whole entry W525K): as the sequence (Q60598 whole entry Y466D/Y482D) above, with D466Y, D482Y, W525K counted along it
Sequence of Src substrate cortactin (Mus musculus), Q60598 S405D;P416D;Y466D;Y482D (Q60598 whole entry S405D/P416D/Y466D/Y482D): as the sequence (Q60598 whole entry Y466D/Y482D) above, with S405D, P416D counted along it

Row | effect of a mutation on the interaction | Substance
1 | decreasing interaction | Src substrate cortactin (Mus musculus), Q60598 S405D;P416D;Y466D;Y482D
2 | increasing interaction | Src substrate cortactin (Mus musculus), Q60598 S405D;S418D
3 | disrupting interaction | Src substrate cortactin (Mus musculus), Q60598 W525K
4 | decreasing interaction | Src substrate cortactin (Mus musculus), Q60598 Y466D;Y482D

— IntAct's records for PubMed 15169891
